Luciferase activity in the repressor release assay (pRSVO-luc reporter, CHO-K1 cells) (fold reduction) data for two substances are collected here from patent US6333167.

Experiment [1] concerns the target LacI-SREBP2 fusion protein encoded by pCMV-ISRP (human (SREBP2 portion)).
Experiment [2] concerns the target APP-LacI fusion protein encoded by pCMV-APPI (Artificial Sequence).

Regarding Site-2 protease (S2P) (enzyme), the luciferase activity in the repressor release assay (pRSVO-luc reporter, CHO-K1 cells) (fold reduction) in experiment [1] stood at 100.

In experiment [2], γ-secretase (enzyme) displayed a luciferase activity in the repressor release assay (pRSVO-luc reporter, CHO-K1 cells) (fold reduction) of 35.
